For assay [1], the target named is binding target for TKPPR on HAEC (human aortic endothelial cells). Briefly: competition of 2% D47 bubble binding to HAEC; D54 100 µM.
Assay [2] shares this target. Briefly: competition of 2% D47 bubble binding to HAEC; D54 50 µM.
The target is the same in assay [3]. Description: competition of 2% D47 bubble binding to HAEC; D54 200 µM.
Assay [4] shares this target. Description: competition of 1% D47 bubble binding to HAEC; TKPR 5 µM.
The target is the same in assay [5]. Description: competition of 1% D47 bubble binding to HAEC; TKPR 25 µM.
Assay [6] has the same target. Briefly: competition of 1% D47 bubble binding to HAEC; TKPR 50 µM.
The target is the same in assay [7]. Description: competition of 1% D47 bubble binding to HAEC; TKPR 100 µM.
Assay [8] shares this target. Briefly: competition of 1% D47 bubble binding to HAEC; TKPR 10 µM.
Assay [9] shares this target. Briefly: beads perfused over HAEC in a parallel plate flow cell, 37 C.
Assay [10] has the same target. Description: fluorescent beads on confluent HAEC, static 30 min, image analysis.
The next assay addresses VEGF receptors on HUVECs. Description: competition with 125I-VEGF for binding to HUVECs.
Assay [11] deals with binding target for TKPPR on HAEC (human aortic endothelial cells). Briefly: competition of 2% D47 bubble binding to HAEC; D55 50 µM.
The target is the same in assay [12]. Briefly: competition of 2% D47 bubble binding to HAEC; D55 200 µM.
Assay [13] has the same target. Description: competition of 2% D47 bubble binding to HAEC; D55 100 µM.

Positions of bridges follow the written chain, without caps; N, C: chain ends. Non-standard residues stand in square brackets, D forms with d. No end group written: not given here. AEEA = NCCOCCOCC(=O)O

B1: linear CTKPPRC (D54) (peptide)
peptide: CTKPPRC
B1: the results for the Bubbles Bound % in presence of competitor in assay [1], in [2] and in assay [3] were 78 % of control, 97 % of control and 88 % of control, respectively.

B2: Tuftsin (TKPR) (peptide)
peptide: TKPR
For B2, the Bubbles Bound in presence of competitor in [4] was determined as 1150 bubbles; in assay [5], 1170 bubbles; in [6] it was 904 bubbles; in assay [7] it was 556 bubbles; in assay [8], 976 bubbles.

B3: TKPPR-conjugated red fluorescent microspheres (peptide)
peptide: TKPPR
modifications: also: amino group coupled by EDAC to carboxylate-modified FluoSpheres, which amino group not given here
With B3, the Bound at 1.53 dynes/cm^2 in [9] stood at 86 beads. In assay [10], this molecule displayed an Integrated density of bound beads (arbitrary units) of 230.

B4: TKPPR tetramer D41, OG-(TKPPR)4 (peptide)
peptide: [AEEA]TKPPR
modifications: also: tetramer of four TKPPR on a branched non-peptide scaffold, one Oregon Green label on scaffold
Turning to B4, in the assay with VEGF receptors on HUVECs, the IC50 was 10 µM.

B5: cyclic disulfide CTKPPRC (D55) (peptide)
peptide: CTKPPRC
modifications: disulfide 1-7 (inferred)
In the case of B5, the Bubbles Bound % in presence of competitor in [11] was 97 % of control; in assay [12] it was 99 % of control; in assay [13] it was 71 % of control.

B6: GRGDSP-conjugated fluorescent microspheres (peptide)
peptide: GRGDSP
modifications: also: coupled by EDAC to carboxylate-modified FluoSpheres, site not given here
The molecule B6 returned an Integrated density of bound beads (arbitrary units) in assay [10] of 28.6.

Usually IC50 stands for the concentration at which inhibition is half-maximal. Lower therefore signals greater potency in that assay.

The values are drawn from US20060153775A1.
